Experimental data: patent US11427805B2, “Methods of producing human foregut endoderm cells expressing PDX1 from human definitive endoderm” (ViaCyte, Inc., priority 2005, dated 2022)

How the values were obtained:
Format in all cases: cell-based, human
definitive endoderm = experiment: Dorsal / ventral / PDX1-negative foregut endoderm differentiation from definitive endoderm (marker gene expression); settings: for specification of definitive endoderm into foregut endoderm: FGF10 5-500 ng/ml, KAAD-cyclopamine 0.1-2 μM
Protocol: Definitive endoderm was produced from undifferentiated hESCs using a three or five day protocol in which activin A was provided to the culture medium at a concentration of 100 ng/ml each day. For both dorsal and ventral differentiation, the medium composition for the first five days was as follows: Day 1—RPMI+0% fetal bovine serum (FBS), Day 2—RPMI+0.2% PBS, Day 3—RPMI+2.0% FBS, Day 4—RPMI+2.0% FBS and Day 5—RPMI+2.0% FBS. For the ventral differentiation, definitive endoderm was produced for 3 days in activin A at 100 ng/ml and then exposed to BMP4 at 3 ng/ml and FGF10 at 50 ng/ml. […] For the dorsal differentiation procedure, definitive endoderm was produced for 5 days in activin A at 100 ng/ml and then exposed to retinoic acid (RA) at 2 μM and activin A at 25 ng/ml in CMRL medium containing B27 supplement (1:200).
Four separate conditions were used to treat hESCs that result in varying proportions of differentiation to definitive endoderm. All four conditions utilized RPMI supplemented with 0% FBS on the first day, 0.2% FBS on second day, and 2% FBS on days 3 and 4. The four conditions were as follows: (a) BMP4 at 100 ng/mL with SU5402 at 5 μM; (b) no exogenous growth factors; (c) activin A at 15 ng/mL; and (d) activin A at 100 ng/ml. […] All cultures were then incubated for 2 days with BMP4 at 3 ng/mL, FGF10 at 50 ng/ml and KAAD-cyclopamine at 0.5 μM in a base medium of 2% FBS in RPMI followed by 6 days with BMP4 at 3 ng/mL, FGF10 at 50 ng/ml and KAAD-cyclopamine at 0.5 μM in a base medium composed of CMRL with 1:200 dilution of B27 extract.
Definitive endoderm was produced by exposing undifferentiated hESCs to activin at 100 ng/mL in RPMI base medium supplemented with 0%, 0.2%, and 2% FBS on days 1 through 3, respectively. After 3 days of activin A treatment, the cultures were switched to a base medium composed of RPMI containing 2% FBS and maintained under one of the following conditions: (a) BMP4 at 3 ng/ml with FGF10 at 50 ng/ml and KAAD-cyclopamine at 0.5 μM; (b) FGF10 at 50 ng/ml and KAAD-cyclopamine at 0.5 μM; or (c-e) no exogenous factors. After two days, the base medium was changed to CMRL plus B27 supplement (1:200) and cells were maintained according to conditions (a-c) above. Alternatively, cells were maintained with no exogenous factors in RPMI with B27 supplement (1:200) (condition (d)) or RPMI with 2% FBS (condition (e)). The same factor treatment conditions were maintained for 8 more days of differentiation.
Human embryonic stem cells were differentiated for 7 days via a 2-step protocol to achieve PDX1 cells. The first step comprised 5 days differentiation in activin A (100 ng/ml) to robustly produce DE (D'Amour, K., et al., Nature Biotechnology 23, 1534-1541, (2005)). […]

PDX1 gene expression = experiment: Q-PCR of PDX1 gene expression in hESC-derived definitive endoderm cultures; settings: for PDX1 induction over RA alone: added to 1 μM RA on day four, ninety six hours (FIG. 37A)
Protocol: (§1) Human embryonic stem cells were cultured with or without activins for four days. On day four, 1 μM RA and 50 ng/ml FGF-10 were added to the cell culture. Forty-eight hours after the RA/FGF-10 addition, the expression of the PDX1 marker gene and other marker genes not specific to foregut endoderm were quantitated by Q-PCR.
(§2) As in the previous Example, hESCs were cultured with or without activins for four days. On day four, the cells were treated with one of the following: 1 μM RA alone; 1 μM RA in combination with either FGF-4 or FGF-10; or 1 μM RA in combination with both FGF-4 and FGF-10. The expression of PDX1, SOX7 and NFM were quantitated by Q-PCR ninety six hours after RA or RA/FGF.
Human embryonic stem cells were cultured with or without activins for four days. On day four, FGF-10 at 50 ng/ml was added to the culture in combination with RA at 0.04 μM, 0.2 μM or 1.0 μM. The expression of the PDX1 marker gene as well as other markers not specific for foregut endoderm were quantitated by Q-PCR.
Human embryonic stem cells were induced to differentiate to definitive endoderm by treatment of undifferentiated hES cells grown on mouse embryonic fibroblast feeders with high dose activin A (100-200 ng/ml in 0.5-2% FBS/DMEM/F12) for 4 days. The no activin A control received 0.5-2% FBS/DMEM/F12 with no added activin A. At four days, cultures received either no activin A in 2% FBS (none), and in 2% serum replacement (SR), or 50 ng/ml activin A together with 2 μM RA and 50 ng/ml FGF-10 in 2% FBS/DMEM/F12 (none, +FBS, +B27) and similarly in 2% Serum replacement (SR). B27 supplement, (Gibco/BRL), was added as a 1/50 dilution directly into 2% FBS/DMEM/F12 (+B27). Duplicate cell samples where taken for each point, and total RNA was isolated and subjected to Q-PCR as previously described.
Human embryonic stem cells were induced to differentiate to definitive endoderm by treatment of undifferentiated hESCs grown on mouse embryonic fibroblast feeders with high dose activin A (50 ng/ml) in low serum/RPMI for 6 days. The FBS dose was 0% on day one, 0.2% on day two and 2% on days 3-6. The negative control for definitive endoderm production (NF) received 2% FBS/RPMI with no added activin A. In order to induce PDX1 expression, each of the cultures received retinoic acid at 2 μM in 2% FBS/RPMI on day 6. The cultures treated with activin A on days one through five were provided with different dosing combinations of activin A and activin B or remained in activin A alone at 50 ng/ml. The no activin A control culture (NF) was provided neither activin A nor activin B. This RA/activin treatment was carried out for 3 days at which time PDX1 gene expression was measured by Q-PCR from duplicate cell samples.
The definitive endoderm cultures generated by 5 days of activin A treatment were then induced to differentiate to PDX1 expressing endoderm by the addition of RA in 2% FBS/RPMI containing activin A at 25 ng/ml for four days. The RA was 2 μM for the first two days of addition, 1 μM on the third day and 0.5 μM on the fourth day. This base medium for PDX1 induction was provided fresh (2A25R) or after conditioning for 24 hours by one of four different cell populations. Conditioned media (CM) were generated from either mouse embryonic fibroblasts (MEFCM) or from hESCs that were first differentiated for 5 days by one of three conditions; i) 3% FBS/RPMI (CM2), or ii) activin A (CM3) or iii) bone morphogenic protein 4 (BMP4) (CM4). […]

[1] = test system: definitive endoderm cells; experiment: Maintenance and expansion of definitive endoderm cells in culture; settings: in the presence of activin
Text: Definitive endoderm cells produced by methods described herein have been maintained and expanded in culture in the presence of activin for greater than 50 days without appreciable differentiation. In such cases, SOX17, CXCR4, MIXL1, GATA4, HNF3β expression is maintained over the culture period. Additionally, TM, SPARC, OCT4, AFP, SOX7, ZIC1 and BRACH were not detected in these cultures. It is likely that such cells can be maintained and expanded in culture for substantially longer than 50 days without appreciable differentiation.

SOX17 gene expression = experiment: Q-PCR of SOX17 gene expression in differentiating hESCs; settings: added to activin A and activin B treated cultures (FIG. 23)
Protocol: In the following experiments, real-time quantitative RT-PCR (Q-PCR) was the primary assay used for screening the effects of various treatments on hESC differentiation. In particular, real-time measurements of gene expression were analyzed for multiple marker genes at multiple time points by Q-PCR. Marker genes characteristic of the desired as well as undesired cell types were evaluated to gain a better understanding of the overall dynamics of the cellular populations. The strength of Q-PCR analysis includes its extreme sensitivity and relative ease of developing the necessary markers, as the genome sequence is readily available. Furthermore, the extremely high sensitivity of Q-PCR permits detection of gene expression from a relatively small number of cells within a much larger population. In addition, the ability to detect very low levels of gene expression provides indications for “differentiation bias” within the population. The bias towards a particular differentiation pathway, prior to the overt differentiation of those cellular phenotypes, is unrecognizable using immunocytochemical techniques. […] Additionally, Q-PCR provides a mechanism by which to evaluate the success of a differentiation protocol in a quantitative format at semi-high throughput scales of analysis.
The approach taken here was to perform relative quantitation using SYBR Green chemistry on a Rotor Gene 3000 instrument (Corbett Research) and a two-step RT-PCR format. Such an approach allowed for the banking of cDNA samples for analysis of additional marker genes in the future, thus avoiding variability in the reverse transcription efficiency between samples.
To generate PCR template, total RNA was isolated using RNeasy (Qiagen) and quantitated using RiboGreen (Molecular Probes). Reverse transcription from 350-500 ng of total RNA was carried out using the iScript reverse transcriptase kit (BioRad), which contains a mix of oligo-dT and random primers. Each 20 μL reaction was subsequently diluted up to 100 μL total volume and 3 μL was used in each 10 μL Q-PCR reaction containing 400 nM forward and reverse primers and 5 μL 2×SYBR Green master mix (Qiagen). Two step cycling parameters were used employing a 5 second denature at 85-94° C. (specifically selected according to the melting temp of the amplicon for each primer set) followed by a 45 second anneal/extend at 60° C. Fluorescence data was collected during the last 15 seconds of each extension phase. A three point, 10-fold dilution series was used to generate the standard curve for each run and cycle thresholds (Ct's) were converted to quantitative values based on this standard curve. The quantitated values for each sample were normalized to housekeeping gene performance and then average and standard deviations were calculated for triplicate samples. At the conclusion of PCR cycling, a melt curve analysis was performed to ascertain the specificity of the reaction. A single specific product was indicated by a single peak at the Tm appropriate for that PCR amplicon.
A first step in establishing the Q-PCR methodology was validation of appropriate housekeeping genes (HGs) in the experimental system. […] We measured the expression levels of Cyclophilin G, hypoxanthine phosphoribosyltransferase 1 (HPRT), beta-2-microglobulin, hydroxymethylbiane synthase (HMBS), TATA-binding protein (TBP), and glucoronidase beta (GUS) in differentiating hESCs. […] We routinely used both Cyclophilin G and GUS to calculate a normalization factor for all samples. The use of multiple HGs simultaneously reduces the variability inherent to the normalization process and increases the reliability of the relative gene expression values.
We were the first to analyze and describe the effect of TGFβ family growth factors, such as Nodal/activin/BMP, for use in creating definitive endoderm cells from embryonic stem cells in in vitro cell cultures. […]

[2] = test system: definitive endoderm cells; experiment: Q-PCR of marker genes other than PDX1 in hESC-derived definitive endoderm cultures; settings: FIG. 40B
Protocol: as §1, §2
Human embryonic stem cells were cultured with or without activins for four days. […] The expression of the PDX1 marker gene as well as other markers not specific for foregut endoderm were quantitated by Q-PCR.
Human embryonic stem cells were induced to differentiate to definitive endoderm by treatment of undifferentiated hESCs grown on mouse embryonic fibroblast feeders with high dose activin A (50 ng/ml) in low serum/RPMI for 6 days. […] The no activin A control culture (NF) was provided neither activin A nor activin B. This RA/activin treatment was carried out for 3 days at which time PDX1 gene expression was measured by Q-PCR from duplicate cell samples. […]

## CC1=C2C[C@H]3[C@@H](CC=C4CC(=O)CC[C@@]43C)[C@@H]2CC[C@]12O[C@@H]1C[C@H](C)CN(CCNC(=O)CCCCCNC(=O)CCc3ccccc3)[C@H]1[C@H]2C [KAAD-cyclopamine, reference compound]
Definitive endoderm
  specification of definitive endoderm into foregut endoderm: further specified definitive endoderm cells into the foregut endoderm domain

## CC1=C(/C=C/C(C)=C/C=C/C(C)=C/C(=O)O)C(C)(C)CCC1 [retinoic acid, reference compound]
PDX1 gene expression; activin for four days followed by 1 μM RA, ninety six hours
  increase in PDX1 gene expression: 60 fold

## activin
[1]
  time definitive endoderm cells were maintained and expanded in culture without appreciable differentiation: greater than 50 days
PDX1 gene expression; four days with or without activins, then 1 μM RA and 50 ng/ml FGF-10 for 48 hours
  PDX1 expression in activin treated cell cultures relative to cultures that received no activin prior to RA application: 160 fold

B1: Wnt3a (protein, UniProt P56704 19-352, looked up)
Protein Wnt-3a: SYPIWWSLAVGPQYSSLGSQPILCASIPGLVPKQLRFCRNYVEIMPSVAEGIKIGIQECQHQFRGRRWNCTTVHDSLAIFGPVLDKATRESAFVHAIASAGVAFAVTRSCAEGTAAICGCSSRHQGSPGKGWKWGGCSEDIEFGGMVSREFADARENRPDARSAMNRHNNEAGRQAIASHMHLKCKCHGLSGSCEVKTCWWSQPDFRAIGDFLKDKYDSASEMVVEKHRESRGWVETLRPRYTYFKVPTERDLVYYEASPNFCEPNPETGSFGTRDRTCNVSSHGIDGCDLLCCGRGHNARAERRREKCRCVFHWCCYVSCQECTRVYDVHTCK
notes: Wnt family growth factor
SOX17 gene expression
  SOX17 expression relative to activin A and activin B alone: increases SOX17 expression

B2: FGF-4 (protein, UniProt P08620 31-206, looked up)
Fibroblast growth factor 4: APTAPNGTLEAELERRWESLVALSLARLPVAAQPKEAAVQSGAGDYLLGIKRLRRLYCNVGIGFHLQALPDGRIGGAHADTRDSLLELSPVERGVVSIFGVASRFFVAMSSKGKLYGSPFFTDECTFKEILLPNNYNAYESYKYPGMFIALSKNGKTKKGNRVSPTMKVTHFLPRL
notes: fibroblast growth factor
PDX1 gene expression
  PDX1 induction over RA alone: approximately 3 fold

B3: FGF-10 (protein, UniProt O15520 38-208, looked up)
Fibroblast growth factor 10: QALGQDMVSPEATNSSSSSFSSPSSAGRHVRSYNHLQGDVRWRKLFSFTKYFLKIEKNGKVSGTKKENCPYSILEITSVEIGVVAVKAINSNYYLAMNKKGKLYGSKEFNNDCKLKERIEENGYNTYASFNWQHNGRQMYVALNGKGAPRRGQKTRRKNTSAHFLPMVVHS
notes: fibroblast growth factor
PDX1 gene expression
  PDX1 induction over RA alone: 60 fold
Definitive endoderm
  specification of definitive endoderm into foregut endoderm: beneficial

B4: activin B (protein, UniProt P09529 293-407, looked up)
Inhibin beta B chain: GLECDGRTNLCCRQQFFIDFRLIGWNDWIIAPTGYYGNYCEGSCPAYLAGVPGSASSFHTAVVNQYRMRGLNPGTVNSCCIPTKLSTMSMLYFDDEYNIVKRDVPNMIVEECGCA
modifications: Inhibin beta B chain
PDX1 gene expression; activin B 10-50 ng/ml with 25 or 50 ng/ml activin A and 2 μM RA, 3 days (FIG. 40A)
  increase in PDX1 expression over the culture that received only activin A at 50 ng/ml: at least 2 fold
[2]
  HNF6 expression: without increase in HNF6 expression

B5: BMP4 (protein, UniProt P12644 293-408, looked up)
Bone morphogenetic protein 4: SPKHHSQRARKKNKNCRRHSLYVDFSDVGWNDWIVAPPGYQAFYCHGDCPFPLADHLNSTNHAIVQTLVNSVNSSIPKACCVPTELSAISMLYLDEYDKVVLKNYQEMVVEGCGCR
notes: bone morphogenic protein 4, member of the TGFβ family
Definitive endoderm; after 3 days activin 100 ng/mL, FGF10 50 ng/ml, KAAD-cyclopamine 0.5 μM, BMP4 3 ng/ml (FIGS. 52A, 52B)
  production of PDX1-positive ventral foregut endoderm: not needed
